Test results from patent publication US20170296640A1 (IMMATICS BIOTECHNOLOGIES, published 2017).

B1: ICAGHVPGV (SEQ ID NO: 148) (peptide)
peptide: ICAGHVPGV
B2: FLGELTLQL (SEQ ID NO: 141) (peptide)
peptide: FLGELTLQL
B3: LLSDPTPGA (SEQ ID NO: 14) (peptide)
peptide: LLSDPTPGA
B4: KLMNIQQQL (SEQ ID NO: 154) (peptide)
peptide: KLMNIQQQL
B5: SLFEASQQL (SEQ ID NO: 129) (peptide)
peptide: SLFEASQQL
B6: IIIEDLLEA (SEQ ID NO: 15) (peptide)
peptide: IIIEDLLEA
B7: ALTGLQFQL (SEQ ID NO: 135) (peptide)
peptide: ALTGLQFQL
B8: KLLKGIYAI (SEQ ID NO: 153) (peptide)
peptide: KLLKGIYAI
B9: ALGRLGILSV (SEQ ID NO: 134) (peptide)
peptide: ALGRLGILSV
B10: ALEELTGFREL (SEQ ID NO: 133) (peptide)
peptide: ALEELTGFREL
B11: FIFGIVHLL (SEQ ID NO: 136) (peptide)
peptide: FIFGIVHLL
B12: FLASPLVAI (SEQ ID NO: 139) (peptide)
peptide: FLASPLVAI
B13: KIMYTLVSV (SEQ ID NO: 152) (peptide)
peptide: KIMYTLVSV
B14: VLIEETDQL (SEQ ID NO: 131) (peptide)
peptide: VLIEETDQL
B15: ILSEKEYKL (SEQ ID NO: 150) (peptide)
peptide: ILSEKEYKL
B16: ILNPVTTKL (SEQ ID NO: 149) (peptide)
peptide: ILNPVTTKL
B17: GLSEYQRNFL (SEQ ID NO: 147) (peptide)
peptide: GLSEYQRNFL
B18: GLLQQPPAL (SEQ ID NO: 146) (peptide)
peptide: GLLQQPPAL
B19: FIQQERFFL (SEQ ID NO: 137) (peptide)
peptide: FIQQERFFL
B20: HLVPASWKL (SEQ ID NO: 13) (peptide)
peptide: HLVPASWKL
B21: FLFEDFVEV (SEQ ID NO: 140) (peptide)
peptide: FLFEDFVEV
B22: KLFDASPTFFA (SEQ ID NO: 128) (peptide)
peptide: KLFDASPTFFA
B23: VIFSYVLGV (SEQ ID NO: 130) (peptide)
peptide: VIFSYVLGV
B24: GLITQVDKL (SEQ ID NO: 144) (peptide)
peptide: GLITQVDKL
B25: NLINNIFEL (SEQ ID NO: 138) (peptide)
peptide: NLINNIFEL
B26: ILVKQSPML (SEQ ID NO: 151) (peptide)
peptide: ILVKQSPML
B27: VLQDQVDEL (SEQ ID NO: 132) (peptide)
peptide: VLQDQVDEL
B28: TLHAVDVTL (SEQ ID NO: 143) (peptide)
peptide: TLHAVDVTL
B29: GLLHEVVSL (SEQ ID NO: 145) (peptide)
peptide: GLLHEVVSL
B30: FLYEDSKSVRL (SEQ ID NO: 142) (peptide)
peptide: FLYEDSKSVRL

These binders were tested against T1, HLA-A*02:01 (peptide-receptive MHC class I monomer after UV cleavage of the UV-sensitive ligand) (human) (assay: UV ligand-exchange ELISA; exchange yield grade (+ >=10%, ++ >=20%, +++ >=50%, ++++ >=75%)).
T1 construct: MHC monomers loaded by UV-ligand exchange and captured on streptavidin plates
Source text: Candidate peptides for T cell based therapies according to the present invention were further tested for their MHC binding capacity (affinity). The individual peptide-MHC complexes were produced by UV-ligand exchange, where a UV-sensitive peptide is cleaved upon UV-irradiation, and exchanged with the peptide of interest as analyzed. Only peptide candidates that can effectively bind and stabilize the peptide-receptive MHC molecules prevent dissociation of the MHC complexes. To determine the yield of the exchange reaction, an ELISA was performed based on the detection of the light chain (β2m) of stabilized MHC complexes. The assay was performed as generally described in Rodenko et al. (Rodenko et al., 2006).
96 well MAXISorp plates (NUNC) were coated over night with 2 ug/ml streptavidin in PBS at room temperature, washed 4× and blocked for 1 h at 37° C. in 2% BSA containing blocking buffer. Refolded HLA-A*02:01/MLA-001 monomers served as standards, covering the range of 15-500 ng/ml. Peptide-MHC monomers of the UV-exchange reaction were diluted 100 fold in blocking buffer. Samples were incubated for 1 h at 37° C., washed four times, incubated with 2 ug/ml HRP conjugated anti-β2m for 1 h at 37° C., washed again and detected with TMB solution that is stopped with […]. Absorption was measured at 450 nm. Candidate peptides that show a high exchange yield (preferably higher than 50%, most preferred higher than 75%) are generally preferred for a generation and production of antibodies or fragments thereof, and/or T cell receptors or fragments thereof, as they show sufficient avidity to the MHC molecules and prevent dissociation of the MHC complexes.

| peptide exchange yield | Binder |
| --- | --- |
| 50 to 75% | B1 |
| 50 to 75% | B2 |
| 20 to 50% | B3 |
| 50 to 75% | B4 |
| 50 to 75% | B5 |
| ≥ 75% | B6 |
| 50 to 75% | B7 |
| 50 to 75% | B8 |
| 50 to 75% | B9 |
| 20 to 50% | B10 |
| 50 to 75% | B11 |
| ≥ 75% | B12 |
| 20 to 50% | B13 |
| 20 to 50% | B14 |
| 50 to 75% | B15 |
| 50 to 75% | B16 |
| 50 to 75% | B17 |
| 50 to 75% | B18 |
| 50 to 75% | B19 |
| 50 to 75% | B20 |
| 50 to 75% | B21 |
| 50 to 75% | B22 |
| 50 to 75% | B23 |
| 50 to 75% | B24 |
| ≥ 75% | B25 |
| 50 to 75% | B26 |
| 20 to 50% | B27 |
| 50 to 75% | B28 |
| 50 to 75% | B29 |
| 50 to 75% | B30 |
